Entries after “also recorded” stand apart in the source; their conditions may differ.

Series [1] is described as follows: Microrheology of protein solutions (bead tracking, G′/G″). Format: physicochemical. On the procedure:
Microrheology. To assess the mechanical properties of all proteins, microrheology was performed using an inverted Leica DM-138 IRB microscope with a 20× objective lens at 22 and 42° C., maintained by a Lincum temperature-controlled cell. […] A total of 2 μL of 2 wt % fluorescent-amidated polystyrene beads (1.0 μm) was added to 10 μL of protein solution. Deionized water, 2 wt % beads, was measured as a control. Brownian motion of the beads was observed by Peltier-cooled video camera (QiCam) and digitally recorded. Mean square displacement (MSD) measurements of the beads were determined by IDL software (Research Systems, Inc.). Using the comprehensive Stokes-Einstein equation, the elastic modulus (G′) and viscous modulus (G″) were determined as a function of angular frequency (ω).
Mechanical Properties. Bulk rheological properties of the protein polymers were evaluated by microrheology (FIG. 4).
Upon fluorination, more depressed concentration-dependent percolation points for the protein polymers were observed. […] Two types of modifications to the rheological behavior are observed from EC and CE sets of constructs.

Series [2] in a line: Inverse temperature transition (Tt) by UV/vis absorbance at 350 nm. Format: physicochemical. Particulars: 4 μM protein in 10 mM phosphate buffer, pH 8.0, heated 10 to 65° C. On the procedure:
UV/Vis Spectroscopy. UV/vis spectroscopy was performed on a Cary 100 UV/vis spectrometer (Agilent) to determine the inverse temperature transition (Tt) of 4 μM protein in 10 mM phosphate buffer, pH 8.0. The absorbance at 350 nm was measured as each protein sample was heated from 10 to 65° C., at a heating rate of 0.5° C./min.
Temperature-Dependent Supramolecular Assembly. The effect of temperature on the supramolecular assembly of the proteins was examined via absorption at 350 nm. The inverse temperature transition (Tt) was determined via temperature-dependent absorption (FIG. 3, insets). The Tt values for all fluorinated block polymers were different, affirming the significance of block orientation and number. […] In comparison to the wt proteins, fluorination appeared to depress the Tt of CE protein from 36 to 28° C.

B1: pFF-EC: Elastin-COMPcc diblock protein polymer with phenylalanine residues replaced by p-fluorophenylalanine (SEQ ID NO: 15) (protein)
chain: MRGSHHHHHHGSKPIAASAVPGVGVPGVGVPGFGVPGVGVPGVGVPGVGVPGVGVPGFGVPGVGVPGVGVPGVGVPGVGVPGFGVPGVGVPGVGVPGVGVPGVGVPGFGVPGVGVPGVGVPGVGVPGVGVPGFGVPGVGVPGVGVPLEGSELAATATATATATATAACGDLAPQMLRELQETNAALQDVRELLRQQVKEITFLKNTVMESDASGLQAATATATATATATAVDLQPS
modifications: Phe replaced by p-fluorophenylalanine
With B1, the rheological character result in series [1] (1.25 mg mL^−1, 22° C.) was “viscoelastic behavior”; in series [1] (2.5 mg mL^−1, 22° C.), “viscoelastic behavior”; in series [1] (2.5 mg mL^−1, 42° C.), “more elastic character”. In addition, in series [2], the “inverse temperature transition (Tt)” value stood at 25 °C.

B2: wt-EC: non-fluorinated Elastin-COMPcc block polymer (SEQ ID NO: 15) (protein)
chain: B1 chain
B2: the rheological character entry was “predominantly viscous” in series [1] (1.25 mg mL^−1, 22° C.); “more elastic character” in series [1] (2.5 mg mL^−1, 42° C.); “elastic network” in series [1] (10 mg mL^−1); “predominantly viscous” in series [1] (concentrations below 2.5 mg mL^−1).

B3: wt-CE: non-fluorinated COMPcc-Elastin block polymer (SEQ ID NO: 16) (protein)
chain: MRGSHHHHHHGSACELAATATATATATATAACGDLAPQMLRELQETNAALQDVRELLRQQVKEITFLKNTVMESDASGLQAATATATATATATAVDKPIAASAVPGVGVPGVGVPGFGVPGVGVPGVGVPGVGVPGVGVPGFGVPGVGVPGVGVPGVGVPGVGVPGFGVPGVGVPGVGVPGVGVPGVGVPGFGVPGVGVPGVGVPGVGVPGVGVPGFGVPGVGVPGVGVPLEGSGTGAKL
Take B3: the rheological character result in series [1] (1.25 mg mL^−1, 22° C.) is “viscous/viscoelastic”; in series [1] (2.5 mg mL^−1, 22° C.), “viscous/viscoelastic”; in series [1] (2.5 mg mL^−1, 42° C.), “viscoelastic character”; in series [1] (up to 10 mg mL^−1), “predominantly viscous”. For the same molecule, the “inverse temperature transition (Tt)” value in series [2] worked out at 36 °C.

B4: pFF-CE: COMPcc-Elastin diblock protein polymer with phenylalanine residues replaced by p-fluorophenylalanine (SEQ ID NO: 23) (protein)
chain: MRGSHHHHHHGSACELAATATATATATATAACGDLAPQMLRELQETNAALQDVRELLRQQVKEITFLKNTVMESDASGLQAATATATATATATAVDKPIAASAVPGVGVPGVGVPGFGVPGVGVPGVGVPGVGVPGVGVPGFGVPGVGVPGVGVPGVGVPGVGVPGFGVPGVGVPGVGVPGVGVPGVGVPGFGVPGVGVPGVGVPGVGVPGVGVPGFGVPGVGVPGVGVPLEGSGTGAKLN
modifications: Phe replaced by p-fluorophenylalanine
Consider B4, for which the rheological character entry is “viscous/viscoelastic” in series [1] (1.25 mg mL^−1, 22° C.); “viscous/viscoelastic” in series [1] (2.5 mg mL^−1, 22° C.); “elastic behavior; also recorded: dominant elastic modulus” in series [1] (2.5 mg mL^−1, 42° C.). The “inverse temperature transition (Tt)” value in series [2] was 28 °C.

B5: pFF-ECE: Elastin-COMPcc-Elastin triblock protein polymer with phenylalanine residues replaced by p-fluorophenylalanine (SEQ ID NO: 17) (protein)
chain: MRGSHHHHHHGSKPIAASAVPGVGVPGVGVPGFGVPGVGVPGVGVPGVGVPGVGVPGFGVPGVGVPGVGVPGVGVPGVGVPGFGVPGVGVPGVGVPGVGVPGVGVPGFGVPGVGVPGVGVPGVGVPGVGVPGFGVPGVGVPGVGVPLEGSELAATATATATATATAACGDLAPQMLRELQETNAALQDVRELLRQQVKEITFLKNTVMESDASGLQAATATATATATATAVDKPIAASAVPGVGVPGVGVPGFGVPGVGVPGVGVPGVGVPGVGVPGFGVPGVGVPGVGVPGVGVPGVGVPGFGVPGVGVPGVGVPGVGVPGVGVPGFGVPGVGVPGVGVPGVGVPGVGVPGFGVPGVGVPGVGVPLEGSGTGAKLN
modifications: Phe replaced by p-fluorophenylalanine
For the molecule B5, the rheological character result in series [1] (1.25 mg mL^−1, 42° C.) is “elastic network formation”. The “inverse temperature transition (Tt)” value in series [2] was 32 °C.

B6: wt-ECE: non-fluorinated Elastin-COMPcc-Elastin block polymer (SEQ ID NO: 17) (protein)
chain: B5 chain
Take B6: the rheological character entry in series [1] (1.25 mg mL^−1, 42° C.) is reported as “completely viscous”; in series [1] (up to 10 mg mL^−1), “viscoelastic”.
